84 variants from the RNAGym collection of RNA variant scans (doi:10.1093/molbev/msab373) can be followed below.

The labels stand for the following.
B1: Azoarcus group I ribozyme (parent)
chain: GUGCCUUGCGCCGGGAAACCACGCAAGGGAUGGUGUCAAAUUCGGCGAAACCUAAGCGCCCGCCCGGGCGUAUGGCAACGCCGAGCCAAGCUUCGGCGCCUGCGCCGAUGAAGGUGUAGAGACUAGACGGCACCCACCUAAGGCAAACGCUAUGGUGAAGGCAUAGUCCAGGGAGUGGCGAAAGUCACACAAACCGG

In this series the parent is B1. Nature of the series: reverse-splicing fitness (ratio to wild type); higher = more active; in vitro selection; Mg2+ level not given. An outline of the steps:
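An in vitro group I ribozyme library with randomized positions was T7-transcribed and gel-purified. In triplicate, 10 pmol RNA in EPPS pH 7.5 was reacted with 50 pmoles of a 30-nt RNA substrate for 1 h at 37 °C across several added MgCl2 levels (1–48 mM), then stopped with EDTA. Products were reverse transcribed from a substrate-complementary primer, PCR-amplified and sequenced (HiSeq 4000). Fitness is a variant's read proportion after selection over that before, normalised to wild type.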
In the case of C82U A111U A120C A145C C150G, the reverse-splicing fitness worked out at 0.00726.

In the case of C82U A111U A120C A145C C150U, the reverse-splicing fitness was 0.0119.

Turning to C82U A111U A120C A145C C150A, the reverse-splicing fitness stood at 0.00788.

Take C82U A111U A120G A145C C150A C169U U176C: the reverse-splicing fitness was 0.00977.

With C82U A111U A120G A145C C150A C169U U176A, the reverse-splicing fitness is 0.0189.

Take C82U A111U A120G A145C C150A C169U U176G: the reverse-splicing fitness was 0.00474.

For C82U A111U A120C A145U C150G C169A U176A, the reverse-splicing fitness was 0.00915.

For the variant C82U A111U A120C A145U C150G C169A U176C, the reverse-splicing fitness was found to be 0.00923.

Turning to C82U A111U A120C A145U C150G C169A U176G, the reverse-splicing fitness is 0.0051.

C82U A111U A120C C150G C169U U176C: the reverse-splicing fitness worked out at 0.0149.

For C82U A111U A120C C150G C169U U176A, the reverse-splicing fitness was determined as 0.0091.

As for C82U A111U A120C C150G C169U U176G, the reverse-splicing fitness came out at 0.00538.

Regarding C82U A111U A120C A145U C169A U176A, the reverse-splicing fitness worked out at 0.00849.

Take C82U A111U A120C A145U C169A U176C: the reverse-splicing fitness is 0.00749.

With C82U A111U A120C A145U C169A U176G, the reverse-splicing fitness turned out to be 0.00442.

As to C82U A111U A120C A145C C150G U176C, the reverse-splicing fitness stood at 0.00663.

For the variant C82U A111U A120C A145C C150G U176G, the reverse-splicing fitness was 0.00237.

Turning to C82U A111U A120C A145C C150G U176A, the reverse-splicing fitness turned out to be 0.00494.

In the case of C82U A111U A120G A145C, the reverse-splicing fitness was found to be 0.0134.

As to C82U A111U A120C A145C C169A U176C, the reverse-splicing fitness was found to be 0.00567.

C82U A111U A120C A145C C169A U176G: the reverse-splicing fitness was 0.00392.

As for C82U A111U A120C A145C C169A U176A, the reverse-splicing fitness was 0.00868.

For the variant C82U A111U A120C A145U C150A U176G, the reverse-splicing fitness worked out at 0.0048.

With C82U A111U A120C A145U C150A U176C, the reverse-splicing fitness came to 0.00963.

For the variant C82U A111U A120C A145U C150A U176A, the reverse-splicing fitness turned out to be 0.0115.

For the variant C82U A111G C150U C169A, the reverse-splicing fitness stood at 0.00959.

Take C82U A111G C150U C169U: the reverse-splicing fitness worked out at 0.0108.

Take C82U A111G C150U C169G: the reverse-splicing fitness was 0.0092.

Turning to C82U A111U A120C C150G C169U, the reverse-splicing fitness was found to be 0.00868.

With C82U A111U A120C C150G C169G, the reverse-splicing fitness amounted to 0.00613.

For C82U A111U A120C C150G C169A, the reverse-splicing fitness is 0.00864.

As to C82U A111U A120C C150A C169A U176A, the reverse-splicing fitness worked out at 0.0182.

With C82U A111U A120C C150A C169A U176G, the reverse-splicing fitness came to 0.00592.

On to C82U A111U A120C C150A C169A U176C, for which the reverse-splicing fitness amounted to 0.0182.

Consider C82U A111U A120C A145C C150U C169A U176A, for which the reverse-splicing fitness was 0.0088.

For the variant C82U A111U A120C A145C C150U C169A U176G, the reverse-splicing fitness was found to be 0.00569.

For C82U A111U A120C A145C C150U C169A U176C, the reverse-splicing fitness came out at 0.00517.

In the case of C82U A111U A120C A145C C150A C169G, the reverse-splicing fitness came out at 0.00632.

For C82U A111U A120C A145C C150A C169U, the reverse-splicing fitness was 0.0102.

Turning to C82U A111U A120C A145C C150A C169A, the reverse-splicing fitness was found to be 0.00749.

As to C82U A111U A120C A145U C150U C169U U176A, the reverse-splicing fitness was determined as 0.0145.

C82U A111U A120C A145U C150U C169U U176C: the reverse-splicing fitness came to 0.0157.

With C82U A111U A120C A145U C150U C169U U176G, the reverse-splicing fitness stood at 0.00516.

Turning to C82U A111U A120C A145C C150A U176C, the reverse-splicing fitness is 0.00753.

Take C82U A111U A120C A145C C150A U176A: the reverse-splicing fitness amounted to 0.00819.

For the variant C82U A111U A120C A145C C150A U176G, the reverse-splicing fitness amounted to 0.00471.

For C82U A111U A120C A145C C169G U176G, the reverse-splicing fitness is 0.00439.

Consider C82U A111U A120C A145C C169G U176A, for which the reverse-splicing fitness was 0.0202.

Turning to C82U A111U A120C A145C C169G U176C, the reverse-splicing fitness was determined as 0.0105.

For C82U A111U A120C A145G, the reverse-splicing fitness was found to be 0.03.

For C82U A111U A120C A145C, the reverse-splicing fitness stood at 0.0238.

As for C82U A111U A120C A145U, the reverse-splicing fitness was determined as 0.0286.

With C82U A111U A120C C150U U176A, the reverse-splicing fitness came to 0.011.

Turning to C82U A111U A120C C150U U176C, the reverse-splicing fitness amounted to 0.0158.

On to C82U A111U A120C C150U U176G, for which the reverse-splicing fitness was found to be 0.00696.

For the variant C82U A111U A120C C150A U176C, the reverse-splicing fitness is 0.0189.

Consider C82U A111U A120C C150A U176A, for which the reverse-splicing fitness turned out to be 0.0126.

Take C82U A111U A120C C150A U176G: the reverse-splicing fitness worked out at 0.0056.

For C82U A111U A120C A145C C150U U176C, the reverse-splicing fitness is 0.00856.

For the variant C82U A111U A120C A145C C150U U176A, the reverse-splicing fitness is 0.00801.

Take C82U A111U A120C A145C C150U U176G: the reverse-splicing fitness came to 0.00423.

In the case of C82U A111U A120G A145C C150G C169G, the reverse-splicing fitness was determined as 0.0068.

In the case of C82U A111U A120G A145C C150G C169A, the reverse-splicing fitness worked out at 0.00779.

Turning to C82U A111U A120C C169A, the reverse-splicing fitness worked out at 0.00717.

In the case of C82U A111U A120C C169U, the reverse-splicing fitness was determined as 0.0117.

Turning to C82U A111U A120C C169G, the reverse-splicing fitness was 0.00824.

Take C82U A111G C169G U176G: the reverse-splicing fitness was found to be 0.00463.

For C82U A111G C169G U176A, the reverse-splicing fitness worked out at 0.0159.

Take C82U A111G C169G U176C: the reverse-splicing fitness was 0.0183.

As for C82U A111U A120C C150G C169G U176A, the reverse-splicing fitness was found to be 0.00688.

Regarding C82U A111U A120C C150G C169G U176G, the reverse-splicing fitness was determined as 0.00402.

In the case of C82U A111U A120C C150G C169G U176C, the reverse-splicing fitness came to 0.00458.

As for C82U A111U A120C A145U C150U C169A U176C, the reverse-splicing fitness came out at 0.00781.

Take C82U A111U A120C A145U C150U C169A U176G: the reverse-splicing fitness came to 0.00505.

C82U A111U A120C A145U C150U C169A U176A: the reverse-splicing fitness was determined as 0.0119.

For C82U A111U A120C A145G C150U C169A U176G, the reverse-splicing fitness is 0.00576.

Consider C82U A111U A120C A145G C150U C169A U176A, for which the reverse-splicing fitness stood at 0.017.

As to C82U A111U A120C A145G C150U C169A U176C, the reverse-splicing fitness came to 0.0136.

For the variant C82U A111U A120C A145U U176A, the reverse-splicing fitness was found to be 0.0127.

Regarding C82U A111U A120C A145U U176C, the reverse-splicing fitness was determined as 0.0165.

Consider C82U A111U A120C A145U U176G, for which the reverse-splicing fitness worked out at 0.00445.

As to C82U A111U A120C C150U C169A U176G, the reverse-splicing fitness is 0.00474.

C82U A111U A120C C150U C169A U176A: the reverse-splicing fitness was 0.015.

Take C82U A111U A120C C150U C169A U176C: the reverse-splicing fitness came out at 0.0129.
